Laboratory results: IntAct's records for PubMed 33758649

B1: Protein PALS1 (Homo sapiens), Q8N3R9 (parent)
chain: MTTSHMNGHVTEESDSEVKNVDLASPEEHQKHREMAVDCPGDLGTRMMPIRRSAQLERIRQQQEDMRRRREEEGKKQELDLNSSMRLKKLAQIPPKTGIDNPMFDTEEGIVLESPHYAVKILEIEDLFSSLKHIQHTLVDSQSQEDISLLLQLVQNKDFQNAFKIHNAITVHMNKASPPFPLISNAQDLAQEVQTVLKPVHHKEGQELTALLNTPHIQALLLAHDKVAEQEMQLEPITDERVYESIGQYGGETVKIVRIEKARDIPLGATVRNEMDSVIISRIVKGGAAEKSGLLHEGDEVLEINGIEIRGKDVNEVFDLLSDMHGTLTFVLIPSQQIKPPPAKETVIHVKAHFDYDPSDDPYVPCRELGLSFQKGDILHVISQEDPNWWQAYREGDEDNQPLAGLVPGKSFQQQREAMKQTIEEDKEPEKSGKLWCAKKNKKKRKKVLYNANKNDDYDNEEILTYEEMSLYHQPANRKRPIILIGPQNCGQNELRQRLMNKEKDRFASAVPHTTRSRRDQEVAGRDYHFVSRQAFEADIAAGKFIEHGEFEKNLYGTSIDSVRQVINSGKICLLSLRTQSLKTLRNSDLKPYIIFIAPPSQERLRALLAKEGKNPKPEELREIIEKTREMEQNNGHYFDTAIVNSDLDKAYQELLRLINKLDTEPQWVPSTWLR

Variants of: B1
Conditions: with vemp_sars2 E

Variant	effect of a mutation on the interaction
F318W	increasing interaction strength
